# Assay results reported in patent US20230303649A1 (published 2023).
# Changes are numbered by the printed parent chain.
# T1: IL-2R on human primary T cells (human, UniProt P01589 22-272; P14784 27-551; P31785 23-369)
# T1 sequence (looked up) 1: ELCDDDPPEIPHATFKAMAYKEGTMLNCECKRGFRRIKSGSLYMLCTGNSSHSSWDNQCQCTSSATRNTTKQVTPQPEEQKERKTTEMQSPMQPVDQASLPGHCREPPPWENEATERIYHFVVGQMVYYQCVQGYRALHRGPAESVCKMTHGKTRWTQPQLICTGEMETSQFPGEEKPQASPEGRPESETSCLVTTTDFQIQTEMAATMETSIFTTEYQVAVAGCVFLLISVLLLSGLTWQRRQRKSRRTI
# T1 sequence (looked up) 2: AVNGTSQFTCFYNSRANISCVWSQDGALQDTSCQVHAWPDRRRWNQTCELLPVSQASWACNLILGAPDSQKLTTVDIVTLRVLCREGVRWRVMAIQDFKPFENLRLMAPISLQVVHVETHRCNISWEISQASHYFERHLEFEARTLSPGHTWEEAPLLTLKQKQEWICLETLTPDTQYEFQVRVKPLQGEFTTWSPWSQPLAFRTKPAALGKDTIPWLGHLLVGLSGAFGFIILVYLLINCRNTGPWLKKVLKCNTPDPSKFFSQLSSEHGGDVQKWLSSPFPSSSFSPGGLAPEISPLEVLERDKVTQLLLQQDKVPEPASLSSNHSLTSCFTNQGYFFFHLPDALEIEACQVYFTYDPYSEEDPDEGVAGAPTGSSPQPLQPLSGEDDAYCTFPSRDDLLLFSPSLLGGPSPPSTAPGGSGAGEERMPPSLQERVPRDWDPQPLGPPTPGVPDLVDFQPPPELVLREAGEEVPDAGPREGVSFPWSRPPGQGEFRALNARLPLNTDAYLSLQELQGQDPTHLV
# T1 sequence (looked up) 3: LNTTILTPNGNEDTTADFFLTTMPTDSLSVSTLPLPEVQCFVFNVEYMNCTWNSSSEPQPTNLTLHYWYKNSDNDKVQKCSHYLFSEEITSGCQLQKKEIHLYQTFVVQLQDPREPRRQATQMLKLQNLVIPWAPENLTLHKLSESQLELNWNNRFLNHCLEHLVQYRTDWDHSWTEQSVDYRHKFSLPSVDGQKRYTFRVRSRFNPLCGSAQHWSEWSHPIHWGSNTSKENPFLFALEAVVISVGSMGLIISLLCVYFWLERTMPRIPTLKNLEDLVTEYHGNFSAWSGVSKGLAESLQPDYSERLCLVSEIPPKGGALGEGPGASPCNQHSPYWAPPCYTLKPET
# B1: SEQ ID NO 11 (ligand)
# chain: APTSSSTKKTQLQLEHLRLDLEMILNGINNYKNPKLTRMLTFKFYMPKKATELKHLQCLEEELKPLEEVLNLAQSKNFHLRPRDLISNINVIVLELKGSETTFMCEYADETATIVEFLNRWITFSTSIISTLT
# B2: SEQ ID NO 34 (ligand)
# chain: B1 chain with R18L, E22Q, Y31H, N88D, T126Q
# B3: SEQ ID NO 35 (ligand)
# chain: B1 chain with R18L, E22Q, Y31H, Q74P, N88D, T126Q
# B4: SEQ ID NO 36 (ligand)
# chain: B1 chain with R18L, E22Q, Y31H, V69A, N88D, T126Q
# B5: SEQ ID NO 37 (ligand)
# chain: B1 chain with R18L, E22Q, Y31H, V69A, N71R, Q74P, N88D, T126Q
# B6: SEQ ID NO 38 (ligand)
# chain: B1 chain with R18L, E22Q, V69A, N71R, Q74P, N88D, T126Q
# B7: SEQ ID NO 39 (ligand)
# chain: B1 chain with R18L, E22Q, N71R, N88D, T126Q
# B8: SEQ ID NO 12 (ligand)
# chain: B1 chain with L80F, R81D, L85V, I86V, N88D, I92F
# B9: SEQ ID NO 16 (ligand)
# chain: B1 chain with L80F, R81D, L85V, I86V, I92F, T126Q
# B10: SEQ ID NO 17 (ligand)
# chain: B1 chain with E22Q, L80F, R81D, L85V, I86V, I92F
# B11: SEQ ID NO 18 (ligand)
# chain: B1 chain with R18L, E22Q, L80F, R81D, L85V, I86V, I92F, T126Q
# B12: SEQ ID NO 13 (ligand)
# chain: B1 chain with R18L, E22Q, Y31H, K35R, V69A, N71R, Q74P, N88D, T126Q
# B13: SEQ ID NO 14 (ligand)
# chain: B1 chain with R18L, E22Q, Y31H, K35R, Q74P, T126Q
# B14: SEQ ID NO 15 (ligand)
# chain: B1 chain with R18L, E22Q, Y31H, K35R, N71R, Q74P, T126Q
# B15: SEQ ID NO 9 (ligand)
# chain: B1 chain with R18L, E22Q, Y31H, K35R, V69A, N71R, Q74P, T126Q
# B16: SEQ ID NO 20 (ligand)
# chain: B1 chain with R18L, E22Q, Y31H, V69A, N71R, Q74P, T126Q
# B17: SEQ ID NO 21 (ligand)
# chain: B1 chain with R18L, E22Q, Y31H, V69A, Q74P, T126Q
# B18: SEQ ID NO 23 (ligand)
# chain: B1 chain with R18L, E22Q, Y31H, N71R, N88D, T126Q
# B19: SEQ ID NO 24 (ligand)
# chain: B1 chain with R18L, E22Q, Y31H, N71R, N88D
# B20: SEQ ID NO 25 (ligand)
# chain: B1 chain with R18L, E22Q, Y31H, K35R, V69A, N71R, Q74P
# B21: SEQ ID NO 26 (ligand)
# chain: B1 chain with R18L, E22Q, Y31H, K35R, N71R, Q74P, N88D, T126Q
# B22: SEQ ID NO 27 (ligand)
# chain: B1 chain with R18L, E22Q, Y31H, K35R, N71R, Q74P
# B23: SEQ ID NO 28 (ligand)
# chain: B1 chain with R18L, E22Q, Y31H, K35R, Q74P, N88D, T126Q
# B24: SEQ ID NO 29 (ligand)
# chain: B1 chain with R18L, E22Q, Y31H, K35R, Q74P
# B25: SEQ ID NO 10 (ligand)
# chain: APTSSSTKKTQLQLEHLLLDLQMILNGISNHKNPRLARMLTFKFYMPEKATELKHLQCLEEELKPLEEALRLAPSKNFHLRPRDLISDVNVIVLELKGSETTFMCEYADETATIVEFLNRWITFSTSIISTLT
# B26: SEQ ID NO 30 (ligand)
# chain: B25 chain with S29N, R35K, A37T, E48K, R71N, V89I, T126Q
# B27: SEQ ID NO 31 (ligand)
# chain: B1 chain with R18L, E22Q, V69A, Q74P, N88D, T126Q
# B28: SEQ ID NO 32 (ligand)
# chain: B1 chain with R18L, E22Q, V69A, N88D, T126Q
# B29: SEQ ID NO 33 (ligand)
# chain: B1 chain with R18L, E22Q, Q74P, N88D, T126Q
# Biological target: T1, IL-2R on human primary T cells
# Assay: cell-based or functional assay
Binder,"CD8 EC50 (nM), STAT5 phosphorylation","Treg EC50 (nM), STAT5 phosphorylation","CD4 conv EC50 (nM), STAT5 phosphorylation","CD8 naïve EC50 (nM), STAT5 phosphorylation"
B1,650 nM,3.96 nM,–,–
B2,1000 nM,2.44 nM,1000 nM,1000 nM
B3,10000 nM,15.7 nM,7000 nM,10000 nM
B4,10000 nM,11.7 nM,4000 nM,10000 nM
B5,10000 nM,1.11 nM,5500 nM,10000 nM
B6,10000 nM,0.4 nM,8880 nM,10000 nM
B7,10000 nM,91.9 nM,5500 nM,10000 nM
B8,650 nM,200 nM,–,–
B9,1.68 nM,0.03 nM,1.31 nM,1.81 nM
B10,10000 nM,1000 nM,1000 nM,10000 nM
B11,23.5 nM,0.08 nM,15.9 nM,21.1 nM
B12,8650 nM,0.65 nM,4160 nM,8410 nM
B13,372 nM,0.29 nM,29.1 nM,444 nM
B14,28.4 nM,0.01 nM,2.52 nM,29.8 nM
B15,589 nM,0.05 nM,2.14 nM,822 nM
B16,227 nM,0.03 nM,1.2 nM,312 nM
B17,151 nM,0.07 nM,4.81 nM,204 nM
B18,1820 nM,0.49 nM,1000 nM,1880 nM
B19,10000 nM,18.3 nM,4000 nM,10000 nM
B20,10000 nM,0.43 nM,2290 nM,10000 nM
B21,4270 nM,0.67 nM,2640 nM,4270 nM
B22,10000 nM,5.94 nM,4000 nM,10000 nM
B23,4000 nM,1.02 nM,1000 nM,4000 nM
B24,10000 nM,9.32 nM,2290 nM,10000 nM
B25,650 nM,2.55 nM,–,–
B26,10000 nM,10.7 nM,7000 nM,10000 nM
B27,10000 nM,17 nM,7000 nM,10000 nM
B28,10000 nM,94.9 nM,7000 nM,10000 nM
B29,1000 nM,2.53 nM,4000 nM,1000 nM
